Key:
[1] = target: T1, human OX40 expressed on the cell surface (human, UniProt P43489 29-277); assay: FACS on activated human T cells
T1 construct: whole, on cells
T1 sequence (looked up): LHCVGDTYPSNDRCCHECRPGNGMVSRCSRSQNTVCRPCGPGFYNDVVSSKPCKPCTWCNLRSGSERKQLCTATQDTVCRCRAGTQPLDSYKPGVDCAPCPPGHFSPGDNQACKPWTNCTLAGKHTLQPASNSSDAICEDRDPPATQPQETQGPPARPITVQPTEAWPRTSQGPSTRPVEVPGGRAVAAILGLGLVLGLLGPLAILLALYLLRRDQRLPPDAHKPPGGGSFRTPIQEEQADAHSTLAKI
Description: (§1) Primary human PBMC were isolated from whole blood obtained from healthy donors through density gradient centrifugation with Ficoll-Paque PLUS (GE Healthcare, Cat 17-1440-02). After centrifuge, the cells in the middle layer were collected and washed 3 times with PBS to obtain PBMC. Then, human T cells were isolated with Pan T Cell Isolation Kit (Miltenyi biotec, Cat 130-096-535) by magnetic beads isolation method according to the protocol recommended by the instructions. T cells were resuspended in RPMI 1640 (containing 10% FBS and penicillin/streptomycin bi-antibiotics) medium, and PHA-L and IL-2 (or Con-A and hIL-2) were added for 2-day stimulation to induce the expression of OX40 from the T cells. The activated T cells were washed once with PBS containing 2% FBS, the serially diluted OX40 antibodies were added, and incubated at 4° C. for 30 minutes. The cells were washed twice with PBS containing 2% FBS, PE-labeled anti-human IgG secondary antibody (Biolegend, Cat 409304) (or PE-labeled anti-mouse IgG secondary antibody (Biolegend, Cat 405307)) and APC-CY7 labeled antibody human CD4 antibody (Biolegend, Cat 300518) were added. The binding of OX40 antibody on the surface of CD4 positive T cells was detected by BD Cantoll flow cytometry. A curve was fitted according to the median fluorescence intensity value, and EC₅₀ was calculated.
According to the detection method described in the preceding Example 1.2, FACS was used to analyze the binding activities of humanized antibodies to OX40 on activated human T cells.

[2] = target: T1, human OX40 expressed on the cell surface; assay: cell-based or functional assay
[3] = target: T2, recombinant OX40-Fc protein (R & D, Cat 3388-OX) (human, UniProt P43489 29-214); assay: blocking ELISA: OX40-Fc coated, antibody titrated, competitor OX40L at 50 ng/ml
T2 construct: extracellular domain; also called OX40 (R & D systems, Cat 3388-OX); not shown: Fc tag
T2 sequence (looked up): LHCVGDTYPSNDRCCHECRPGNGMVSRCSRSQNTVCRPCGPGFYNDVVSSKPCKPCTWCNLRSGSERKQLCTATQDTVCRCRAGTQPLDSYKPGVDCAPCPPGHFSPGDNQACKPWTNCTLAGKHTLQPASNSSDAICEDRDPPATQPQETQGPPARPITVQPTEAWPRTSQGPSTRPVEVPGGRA

[4] = target: T1, human OX40 expressed on the cell surface; assay: cell-based or functional assay; remark: listed apart in the source
[5] = target: T3, recombinant human OX40-His protein (R & D Systems, Cat 9969-OX) (human, UniProt P43489 29-214); assay: SPR (Biacore), antibody captured on anti-human Fc CM5 chip, human OX40-His as analyte, 1:1 Langmuir
T3 construct: extracellular domain; Bought protein; also called human OX40 protein; human OX40-His fusion protein; not shown: His tag
T3 sequence (looked up): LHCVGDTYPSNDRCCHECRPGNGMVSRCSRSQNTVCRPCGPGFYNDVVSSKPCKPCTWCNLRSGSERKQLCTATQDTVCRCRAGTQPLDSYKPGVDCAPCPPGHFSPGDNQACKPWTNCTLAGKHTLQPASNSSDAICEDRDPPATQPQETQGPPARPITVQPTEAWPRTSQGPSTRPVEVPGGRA
Description: Biacore is used to determine the binding kinetic parameters by measuring surface plasmon resonance (SPR). This technology was used to detect the microscopic rate constants of the binding (kₐ) and dissociation (kd) of an antibody and an antigen. Based on the kₐ and the kd values, the affinity value of the antibody to the antigen is obtained. Both Biacore instrument and reagents were purchased from GE Healthcare. In particular, anti-human Fc antibody was immobilized on a CM5 sensor chip. The supernatants containing expressed antibody or the purified antibodies were diluted in a mobile phase buffer (10 mM HEPES, 150 mM NaCl, 3 mM EDTA, 0.05% Tween-20, pH 7.4), and flowed through the CM5 chip coated with anti-human Fc antibody. Then the serially diluted human OX40-His fusion proteins flowed through the detection chip to measure the binding of the antigen to the antibody, and then the mobile phase buffer flowed through the chip to detect the dissociation of the antigen from the antibody. The binding and dissociation signal data of the antigen and the antibody were collected at different concentrations, and fitted to the 1:1 Langmuir model to calculate the affinity between the antigen and the antibody.

[6] = target: T1, human OX40 expressed on the cell surface; assay: FACS on activated human CD4+ T cells
Description: as §1

[7] = target: T1, human OX40 expressed on the cell surface; assay: cell-based or functional assay; remark: listed apart in the source
[8] = target: T3, recombinant human OX40-His protein (R & …); assay: ELISA, human OX40-His coated, anti-mouse IgG-HRP detection
Description: The recombinant human OX40-His (R & D, Cat 9969-OX) was coated onto 96-well plates. After blocking, serially diluted mouse serum or antibodies were added and incubated. After washing plates with PBS containing 0.5% Tween20, HRP-labeled anti-mouse IgG secondary antibody was added for incubation, and the plates were developed with […], and the OD450 value was read via a microplate reader.

B1: Hu38E11-v1 (antibody, human IgG1, V domains shown)
VH: QVQLVQSGAEVKKPGASVKVSCKASGYTFTSYWVDWVRQAPGQGLEWIGNIYPSDSETHYNQKFKDRVTMTVDTSTSTVYMELSSLRSEDTAVYYCARSYGYYGTWFAYWGQGTLVTVSS
VL: DIVMTQSPDSLAVSLGERATINCRASESVDSSGNSFMHWYQQKPGQPPKLLIYRASNLESGIPDRFSGSGSGTDFTLTISSVQAEDVAVYYCQQSNEDPWTFGGGTKLEIK
notes: also called Hu38E11-vl
EC50 [1]: 5.03 nM
Agonistic activity on T cells, IFNγ release, EC50 [2]: 0.7 nM
maximum IFNγ concentration [2]: 21600 ng/mL

B2: Hu38E11 (IgG1 N297A) (antibody, name in EU numbering)
heavy: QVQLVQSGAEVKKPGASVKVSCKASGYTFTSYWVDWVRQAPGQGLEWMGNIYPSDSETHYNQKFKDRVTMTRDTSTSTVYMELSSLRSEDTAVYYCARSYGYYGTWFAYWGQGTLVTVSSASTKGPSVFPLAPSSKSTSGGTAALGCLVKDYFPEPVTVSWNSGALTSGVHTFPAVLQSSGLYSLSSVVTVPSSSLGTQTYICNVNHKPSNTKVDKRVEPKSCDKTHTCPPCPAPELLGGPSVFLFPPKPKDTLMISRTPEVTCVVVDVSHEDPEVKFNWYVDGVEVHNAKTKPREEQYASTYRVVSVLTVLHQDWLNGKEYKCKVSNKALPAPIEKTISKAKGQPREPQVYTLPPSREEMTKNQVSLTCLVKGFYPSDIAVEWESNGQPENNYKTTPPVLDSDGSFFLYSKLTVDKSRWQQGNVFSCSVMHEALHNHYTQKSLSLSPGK
VL: DIVMTQSPDSLAVSLGERATINCRASESVDSSGNSFMHWYQQKPGQPPKLLIYRASNLESGVPDRFSGSGSGTDFTLTISSLQAEDVAVYYCQQSNEDPWTFGGGTKLEIK
notes: Hu38E11 variable regions with a human IgG1 constant region carrying N297A; also called Hu38E11 (hIgG1 N297A)
IC50 [3]: ~0.3 nM
blocking of OX40L-mediated T cell activation, IFNγ secretion, IC50 [4]: 0.3 nM
inhibition of the expression of luciferase reporter gene under the control of NF-κB, IC50 [4]: 0.2 nM

B3: Hu38E11 (IgG2) (antibody)
heavy: QVQLVQSGAEVKKPGASVKVSCKASGYTFTSYWVDWVRQAPGQGLEWMGNIYPSDSETHYNQKFKDRVTMTRDTSTSTVYMELSSLRSEDTAVYYCARSYGYYGTWFAYWGQGTLVTVSSASTKGPSVFPLAPCSRSTSESTAALGCLVKDYFPEPVTVSWNSGALTSGVHTFPAVLQSSGLYSLSSVVTVPSSNFGTQTYTCNVDHKPSNTKVDKTVERKCCVECPPCPAPPVAGPSVFLFPPKPKDTLMISRTPEVTCVVVDVSHEDPEVQFNWYVDGVEVHNAKTKPREEQFNSTFRVVSVLTVVHQDWLNGKEYKCKVSNKGLPAPIEKTISKTKGQPREPQVYTLPPSREEMTKNQVSLTCLVKGFYPSDIAVEWESNGQPENNYKTTPPMLDSDGSFFLYSKLTVDKSRWQQGNVFSCSVMHEALHNHYTQKSLSLSPGK
VL: DIVMTQSPDSLAVSLGERATINCRASESVDSSGNSFMHWYQQKPGQPPKLLIYRASNLESGVPDRFSGSGSGTDFTLTISSLQAEDVAVYYCQQSNEDPWTFGGGTKLEIK
T-cell agonistic activity, IFNγ released by T cells, EC50 [4]: 1.6 nM

B4: Hu38E11-v3 (antibody, human IgG1, V domains shown)
VH: QVQLVQSGAEVKKPGASVKVSCKASGYTFTSYWVDWVRQAPGQGLEWMGNIYPSDSETHYNQKFKDRVTMTRDTSTSTVYMELSSLRSEDTAVYYCARSYGYYGTWFAYWGQGTLVTVSS
VL: DIVMTQSPDSLAVSLGERATINCRASESVDSSGNSFMHWYQQKPGQPPKLLIYRASNLESGIPDRFSGSGSGTDFTLTISSVQAEDVAVYYCQQSNEDPWTFGGGTKLEIK
EC50 [1]: 3.48 nM
Agonistic activity on T cells, IFNγ release, EC50 [2]: 1.7 nM
maximum IFNγ concentration [2]: 22500 ng/mL

B5: humanized 38E11 antibody Hu38E11 (IgG1) (antibody)
heavy: not shown
VL: DIVMTQSPDSLAVSLGERATINCRASESVDSSGNSFMHWYQQKPGQPPKLLIYRASNLESGVPDRFSGSGSGTDFTLTISSLQAEDVAVYYCQQSNEDPWTFGGGTKLEIK
expression of the luciferase reporter gene under the control of NF-κB, EC50 [4]: 0.7 nM
Kd [5]: 2.36 nM
koff [5]: 0.000394 s⁻¹
kon [5]: 167000 M⁻¹ s⁻¹
EC50 [1]: 4.56 nM
Agonistic activity on T cells, IFNγ release, EC50 [2]: 2.4 nM
maximum IFNγ concentration [2]: 24800 ng/mL

B6: Hu38E11-v4 (antibody, human IgG1, V domains shown)
VH: QVQLVQSGAEVKKPGASVKVSCKASGYTFTSYWVDWVRQAPGQGLEWIGNIYPSDSETHYNQKFKDRVTMTVDTSTSTAYMELSSLRSEDSAVYYCARSYGYYGTWFAYWGQGTLVTVSS
VL: DIVMTQSPDSLAVSLGERATINCRASESVDSSGNSFMHWYQQKPGQPPKLLIYRASNLESGIPDRFSGSGSGTDFTLTISSLQAEDVAVYYCQQSNEDPWTFGGGTKLEIK
EC50 [1]: 3.02 nM
Agonistic activity on T cells, IFNγ release, EC50 [2]: 0.9 nM
maximum IFNγ concentration [2]: 21700 ng/mL

B7: Hu38E11-v2 (antibody, human IgG1, V domains shown)
VH: QVQLVQSGAEVKKPGASVKVSCKASGYTFTSYWVDWVRQAPGQGLEWIGNIYPSDSETHYNQKFKDRVTMTVDTSTSTAYMELSSLRSEDSAVYYCARSYGYYGTWFAYWGQGTLVTVSS
VL: DIVMTQSPDSLAVSLGERATINCRASESVDSSGNSFMHWYQQKPGQPPKLLIYRASNLESGVPDRFSGSGSGTDFTLTISSLQAEDVAVYYCQQSNEDPWTFGGGTKLEIK
EC50 [1]: 3.35 nM
Agonistic activity on T cells, IFNγ release, EC50 [2]: 1 nM
maximum IFNγ concentration [2]: 22500 ng/mL

B8: OX40mAb24 (antibody, V domains shown)
VH: QVQLQESGPGLVKPSQTLSLTCAVYGGSFSSGYWNWIRKHPGKGLEYIGYISYNGITYHNPSLKSRITINRDTSKNQYSLQLNSVTPEDTAVYYCARYKYDYDGGHAMDYWGQGTLVTVSS
VL: DIQMTQSPSSLSASVGDRVTITCRASQDISNYLNWYQQKPGKAPKLLIYYTSKLHSGVPSRFSGSGSGTDYTLTISSLQPEDFATYYCQQGSALPWTFGQGTKVEIKR
EC50 [6]: 1.3 nM
Enhancement of IFNγ production by activated human T cells (ELISA), EC50 [7]: 14.7 nM
Ratio of IFNγ maximum effect to background (in fold) [7]: 9.4 fold
EC50 [1]: 6.23 nM
Agonistic activity on T cells, IFNγ release, EC50 [2]: 7.1 nM
maximum IFNγ concentration [2]: 27400 ng/mL

B9: hybridoma-derived antibody 38E11 (antibody, V domains shown)
VH: QVQLQQPGAELVRPGSSVQLSCKASGYTFTSYWVDWVKQRPGQGLQWIGNIYPSDSETHYNQKFKDKATLTVDKSSSTAYMQLSSLTSEDSAVYYCARSYGYYGTWFAYWGQGTLVTVSA
VL: DIVLTQSPASLAVSLGQRATISCRASESVDSSGNSFMHWYQQKPGQPPKLLIYRASNLESGIPARFSGSGSRTDFTLTINPVEADDVATYYCQQSNEDPWTFGGGTKLEIK
notes: Murine antibody purified from hybridoma supernatant by protein A
EC50 [6]: 0.8 nM
Enhancement of IFNγ production by activated human T cells (ELISA), EC50 [7]: 1.4 nM
Ratio of IFNγ maximum effect to background (in fold) [7]: 7.6 fold
EC50 [8]: 0.276 nM

B10: 11D4 (antibody, V domains shown)
VH: EVQLVESGGGLVQPGGSLRLSCAASGFTFSSYSMNWVRQAPGKGLEWVSYISSSSSTIDYADSVKGRFTISRDNAKNSLYLQMNSLRDEDTAVYYCARESGWYLFDYWGQGTLVTVSS
VL: DIQMTQSPSSLSASVGDRVTITCRASQGISSWLAWYQQKPEKAPKSLIYAASSLQSGVPSRFSGSGSGTDFTLTISSLQPEDFATYYCQQYNSYPPTFGGGTKVEIKR
T-cell agonistic activity, IFNγ released by T cells, EC50 [4]: 5.3 nM
EC50 [6]: 0.4 nM
Enhancement of IFNγ production by activated human T cells (ELISA), EC50 [7]: 8 nM
Ratio of IFNγ maximum effect to background (in fold) [7]: 5.6 fold
Kd [5]: 2.51 nM
koff [5]: 0.000435 s⁻¹
kon [5]: 173000 M⁻¹ s⁻¹

— patent US20230151105A1 (HUTCHISON MEDIPHARMA, published 2023)
